Ends that are not written are not given here. * marks the point of attachment. PP1 = 3,5-bis[[bis(2-pyridylmethyl)amino]methyl]benzoic acid, O=C(c1cc(CN(Cc2ccccn2)Cc2ccccn2)cc(CN(Cc2ccccn2)Cc2ccccn2)c1)*; X2 = 7‑methoxycoumarin‑3‑carboxylic acid, COc1ccc2cc(C(=O)*)c(=O)oc2c1
T1: α-casein (UniProt P02662 16-214, between 8 and 13 phosphate groups, at serine side chains)
T1 construct: Commercial α-casein is a mixture of subtypes; also called a-casein
T1 sequence (looked up): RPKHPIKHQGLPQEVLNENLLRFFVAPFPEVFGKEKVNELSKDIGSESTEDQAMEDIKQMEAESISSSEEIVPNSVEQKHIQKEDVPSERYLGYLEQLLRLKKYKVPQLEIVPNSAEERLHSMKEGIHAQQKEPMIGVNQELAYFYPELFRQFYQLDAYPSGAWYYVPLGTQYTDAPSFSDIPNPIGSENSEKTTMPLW


Key:
α-casein [1] = target: T1, α-casein; assay: fluorescence titration, 100 nM fluorescein labelled binder, α-casein 1 nM to 10 µM, 1:1 model
Description: (§1) For a more accurate determination of the dissociation constant, titration with protein at a binder concentration of 100 nM in 10 mM HEPES buffer and 150 mM NaCl at pH 7.2 was carried out (FIG. 12). At this concentration a more strongly emitting probe was required and fluorescein was attached to the side chain of Cys-24 by reacting the maleimide group with the free thiol of the polypeptide after removal of the acetamidomethyl (Acm) protection group. The binder concentration was kept constant at 100 nM and a series of samples were prepared where only the concentration of α-casein was varied.
(§2) A series of solutions were prepared. […] All solutions were prepared in HEPES buffer (pH=7.2, 10 mM HEPES, 150 mM NaCl).

α-casein [2] = target: T1, α-casein; assay: fluorescence titration, binder fixed at 100 nM, concentration of total α-casein varied [upper panel, [a-casein]tot]
Description: as §1, §2

α-casein [3] = target: T1, α-casein; assay: fluorescence titration, binder fixed at 100 nM, plotted against the free concentration of α-casein [lower panel, [a-casein]free]
Description: as §1

α-casein [4] = target: T1, α-casein; assay: three-step fluorescence titration, 500 nM binder; rough estimate
Description: In a preliminary and simple assay executable in microtitre plate format, each of the eight binder candidates at a concentration of 500 nM in 10 mM HEPES buffer and 150 mM NaCl at pH 7.2, equipped with the fluorophor 7-methoxycoumarin-3-carboxylic acid, were titrated with α-casein in three steps (FIG. 8). Concentrations of peptides were determined from the absorbance of the coumarine probe and stock solutions at concentrations of 5 μM were prepared from which aliqiuots were transferred to the microtitre plate. […] Saturation within experimental error at those concentrations is compatible with low nM affinity and tight binding.
In contrast, the differences in relative responses to increased concentrations of α-casein are related to differences in affinity. […] Nevertheless, it is a quick and informative experiment. From the fluorescence titrations the 4-series of binder candidates was estimated to have dissociation constants of around 5 nM or lower. […] It is concluded that the 3-series binders have dissociation constants in the high nM to the μM range. The nearly identical affinities within the 3-series and within the 4-series is probably fortuitous.

| Binder | Kd (α-casein [1]) | EC50 (read off the curve) (α-casein [2]) | EC50 (read off the curve) (α-casein [3]) | Kd (α-casein [4]) |
| --- | --- | --- | --- | --- |
| NAADLEAK(PP1)IRHLREKLAARGPRDC(fluorescein maleimide)AQLAEQLARRFERFARAG-NH2 (designed binder, not fully specified (N-terminus); also: PP1 chelating two Zn2+, group on Lys15 not given here) [4-C15L8-PP1* (fluorescein on Cys-24)] | 17 nM | ~70 nM | ~20 nM |  |
| NAADLEARIRHLRERLAARGPK(PP1)DCK(X2)QLAEQLARAFERFARAG-NH2 (designed binder, not fully specified (residue 24, N-terminus); also: two Zn2+ chelated by PP1, Named only as a member of the 4-series) [4-C25L22-PP1 (coumarin form, with Zn2+)] |  |  |  | ≤ 5 nM |
